In paper PMC7616481, “The functional evolution of collembolan Ubx on the regulation of abdominal appendage formation”:

Tests used:
[1] = target: FcUbx isoform 2 (FcU2, FcUbx2), N-terminally truncated (Folsomia candida, UniProt A0AA96CC73 39-288); test: EMSA; 0.4-3 pmol FcU2; 20 ul with EMSA buffer (5x: 0.1 M Tris, 25% glycerol, 0.2 mg/ml BSA), MgCl2 (2.5 M stock), DTT (1 M stock), poly(dI-dC), 20 ng Cy5 probe; 25 min at 25 C; 12% native PAGE on ice; pH not stated; details: protein: recombinant; tags: GST; label: 5'-Cy5 (both strands)
[2] = target: FcUbx isoform 1 (FcU1, FcUbx1), N-terminally truncated (Folsomia candida, UniProt A0AA95ZMF5 39-293); test: EMSA; 0.2-1.5 pmol FcU1; 20 ul with EMSA buffer (5x: 0.1 M Tris, 25% glycerol, 0.2 mg/ml BSA), MgCl2 (2.5 M stock), DTT (1 M stock), poly(dI-dC), 20 ng Cy5 probe; 25 min at 25 C; 12% native PAGE on ice; pH not stated; details: protein: recombinant; tags: GST; label: 5'-Cy5 (both strands)

B1: DMXR (dsDNA)
DNA 1: GACAATATTTGGGAAATTAAATCATTCCCGCGGACAGTTTTATAGTGC
DNA 2: GCACTATAAAACTGTCCGCGGGAATGATTTAATTTCCCAAATATTGTC
binding result [1]: binds | binding result [2]: binds
